Sequences and labels used below:
B1: Probable E3 ubiquitin-protein ligase MID2, residues 191 to 235; numbered along this chain, Q9UJV3 (parent)
chain: RGITCLDHENEKVNMYCVSDDQLICALCKLVGRHRDHQVASLNDR
B2: Triacylglycerol hydrolase DDHD2, residues 389 to 447; numbered along this chain, O94830 (parent)
chain: TLEEDLKKLQLSEFFDIFEKEKVDKEALALCTDRDLQEIGIPLGPRKKILNYFSTRKNS

Results on 56 variants are retold here after the Human Domainome abundance scans (Beltran et al. 2025).

± gives the uncertainty stated by the source.

Variants of B1 are the subject of one series. Put plainly: abundance fitness (aPCA) (normalised: wild type 0, dead -1); higher = more abundant; growth selection in yeast, the domain comes from the species named. The conditions noted are these: Homo sapiens.
In the case of RGNTCLDHENEKVNMYCVSDDQLICALCKLVGRHRDHQVASLNDR [I3N], the abundance fitness came out at 0.162 ± 0.12. Same read-out and setting: the same measure for RGHTCLDHENEKVNMYCVSDDQLICALCKLVGRHRDHQVASLNDR [I3H]: -0.195 ± 0.26; for RGLTCLDHENEKVNMYCVSDDQLICALCKLVGRHRDHQVASLNDR [I3L]: -0.167 ± 0.055. Still for that read-out and setting: the same measure for RGYTCLDHENEKVNMYCVSDDQLICALCKLVGRHRDHQVASLNDR [I3Y]: 0.072 ± 0.12; for RGMTCLDHENEKVNMYCVSDDQLICALCKLVGRHRDHQVASLNDR [I3M]: 0.111 ± 0.066. The same measure, in the same setting: the same measure for RGTTCLDHENEKVNMYCVSDDQLICALCKLVGRHRDHQVASLNDR [I3T]: 0.08 ± 0.06; for RGWTCLDHENEKVNMYCVSDDQLICALCKLVGRHRDHQVASLNDR [I3W]: -0.229 ± 0.056; for RGQTCLDHENEKVNMYCVSDDQLICALCKLVGRHRDHQVASLNDR [I3Q]: -0.181 ± 0.054. As for RGRTCLDHENEKVNMYCVSDDQLICALCKLVGRHRDHQVASLNDR [I3R], the abundance fitness is -0.079 ± 0.046. On the same count and under the same terms, the same measure for RGETCLDHENEKVNMYCVSDDQLICALCKLVGRHRDHQVASLNDR [I3E]: 0.036 ± 0.057. Same read-out and setting: the same measure for RGGTCLDHENEKVNMYCVSDDQLICALCKLVGRHRDHQVASLNDR [I3G]: 0.043 ± 0.042; for RGSTCLDHENEKVNMYCVSDDQLICALCKLVGRHRDHQVASLNDR [I3S]: -0.081 ± 0.048; for RGISCLDHENEKVNMYCVSDDQLICALCKLVGRHRDHQVASLNDR [T4S]: -0.105 ± 0.062. Same read-out and setting: the same measure for RGIFCLDHENEKVNMYCVSDDQLICALCKLVGRHRDHQVASLNDR [T4F]: 0.001 ± 0.14; for RGIGCLDHENEKVNMYCVSDDQLICALCKLVGRHRDHQVASLNDR [T4G]: -0.217 ± 0.045.

As for RGIICLDHENEKVNMYCVSDDQLICALCKLVGRHRDHQVASLNDR [T4I], the abundance fitness was determined as 0.032 ± 0.37. Consider RGICCLDHENEKVNMYCVSDDQLICALCKLVGRHRDHQVASLNDR [T4C], for which the abundance fitness is -0.18 ± 0.092. Still for that read-out and setting: the same measure for RGILCLDHENEKVNMYCVSDDQLICALCKLVGRHRDHQVASLNDR [T4L]: -0.376 ± 0.067. On to RGIQCLDHENEKVNMYCVSDDQLICALCKLVGRHRDHQVASLNDR [T4Q], for which the abundance fitness was -0.257 ± 0.064. Regarding RGIVCLDHENEKVNMYCVSDDQLICALCKLVGRHRDHQVASLNDR [T4V], the abundance fitness was -0.235 ± 0.051. On to RGINCLDHENEKVNMYCVSDDQLICALCKLVGRHRDHQVASLNDR [T4N], for which the abundance fitness is -0.01 ± 0.11. On the same count and under the same terms, the same measure for RGIYCLDHENEKVNMYCVSDDQLICALCKLVGRHRDHQVASLNDR [T4Y]: 0.133 ± 0.12; for RGIWCLDHENEKVNMYCVSDDQLICALCKLVGRHRDHQVASLNDR [T4W]: -0.219 ± 0.061. Still for that read-out and setting: the same measure for RGIHCLDHENEKVNMYCVSDDQLICALCKLVGRHRDHQVASLNDR [T4H]: -0.071 ± 0.077. On the same count and under the same terms, the same measure for RGIECLDHENEKVNMYCVSDDQLICALCKLVGRHRDHQVASLNDR [T4E]: -0.209 ± 0.049; for RGIRCLDHENEKVNMYCVSDDQLICALCKLVGRHRDHQVASLNDR [T4R]: -0.205 ± 0.048. With RGIACLDHENEKVNMYCVSDDQLICALCKLVGRHRDHQVASLNDR [T4A], the abundance fitness is -0.238 ± 0.053. Consider RGIDCLDHENEKVNMYCVSDDQLICALCKLVGRHRDHQVASLNDR [T4D], for which the abundance fitness is -0.16 ± 0.1. On the same count and under the same terms, the same measure for RWITCLDHENEKVNMYCVSDDQLICALCKLVGRHRDHQVASLNDR [G2W]: -0.403 ± 0.057. As to RYITCLDHENEKVNMYCVSDDQLICALCKLVGRHRDHQVASLNDR [G2Y], the abundance fitness was determined as 0.023 ± 0.12. The same measure, in the same setting: the same measure for RTITCLDHENEKVNMYCVSDDQLICALCKLVGRHRDHQVASLNDR [G2T]: -0.06 ± 0.086; for RPITCLDHENEKVNMYCVSDDQLICALCKLVGRHRDHQVASLNDR [G2P]: -0.222 ± 0.089; for RMITCLDHENEKVNMYCVSDDQLICALCKLVGRHRDHQVASLNDR [G2M]: -0.081 ± 0.068. Still for that read-out and setting: the same measure for RVITCLDHENEKVNMYCVSDDQLICALCKLVGRHRDHQVASLNDR [G2V]: -0.216 ± 0.061; for REITCLDHENEKVNMYCVSDDQLICALCKLVGRHRDHQVASLNDR [G2E]: 0.115 ± 0.063; for RDITCLDHENEKVNMYCVSDDQLICALCKLVGRHRDHQVASLNDR [G2D]: 0.108 ± 0.085. On the same count and under the same terms, the same measure for RLITCLDHENEKVNMYCVSDDQLICALCKLVGRHRDHQVASLNDR [G2L]: -0.218 ± 0.061; for RQITCLDHENEKVNMYCVSDDQLICALCKLVGRHRDHQVASLNDR [G2Q]: -0.181 ± 0.091; for RSITCLDHENEKVNMYCVSDDQLICALCKLVGRHRDHQVASLNDR [G2S]: -0.069 ± 0.065. As to RIITCLDHENEKVNMYCVSDDQLICALCKLVGRHRDHQVASLNDR [G2I], the abundance fitness was -0.522 ± 0.24. Same read-out and setting: the same measure for RRITCLDHENEKVNMYCVSDDQLICALCKLVGRHRDHQVASLNDR [G2R]: -0.033 ± 0.045. With RKITCLDHENEKVNMYCVSDDQLICALCKLVGRHRDHQVASLNDR [G2K], the abundance fitness was 0.042 ± 0.25. RCITCLDHENEKVNMYCVSDDQLICALCKLVGRHRDHQVASLNDR [G2C]: the abundance fitness was -0.511 ± 0.089.

As to RAITCLDHENEKVNMYCVSDDQLICALCKLVGRHRDHQVASLNDR [G2A], the abundance fitness is -0.135 ± 0.054.

The variants in the next series derive from B2. Described as above. To be noted: Homo sapiens.
Take TLEEDLKKLQLSEFFDIFEKEKVDKEALALCTDRDLQEIGIPLGPRKKILNYFSTRKNY [S59Y]: the abundance fitness was -0.109 ± 0.18. Still for that read-out and setting: the same measure for TLEEDLKKLQLSEFFDIFEKEKVDKEALALCTDRDLQEIGIPLGPRKKILNYFSTRKNL [S59L]: -0.473 ± 0.14; for TLEEDLKKLQLSEFFDIFEKEKVDKEALALCTDRDLQEIGIPLGPRKKILNYFSTRKNP [S59P]: -0.064 ± 0.11; for TLEEDLKKLQLSEFFDIFEKEKVDKEALALCTDRDLQEIGIPLGPRKKILNYFSTRKNQ [S59Q]: -0.293 ± 0.4. Regarding TLEEDLKKLQLSEFFDIFEKEKVDKEALALCTDRDLQEIGIPLGPRKKILNYFSTRKNV [S59V], the abundance fitness was -0.153 ± 0.12. With TLEEDLKKLQLSEFFDIFEKEKVDKEALALCTDRDLQEIGIPLGPRKKILNYFSTRKNT [S59T], the abundance fitness is -0.085 ± 0.11.

On to TLEEDLKKLQLSEFFDIFEKEKVDKEALALCTDRDLQEIGIPLGPRKKILNYFSTRKNH [S59H], for which the abundance fitness was -0.056 ± 0.17. Same read-out and setting: the same measure for TLEEDLKKLQLSEFFDIFEKEKVDKEALALCTDRDLQEIGIPLGPRKKILNYFSTRKNK [S59K]: -0.547 ± 0.37; for TLEEDLKKLQLSEFFDIFEKEKVDKEALALCTDRDLQEIGIPLGPRKKILNYFSTRKNW [S59W]: -0.074 ± 0.16. For the variant TLEEDLKKLQLSEFFDIFEKEKVDKEALALCTDRDLQEIGIPLGPRKKILNYFSTRKNN [S59N], the abundance fitness is -0.569 ± 0.26. For TLEEDLKKLQLSEFFDIFEKEKVDKEALALCTDRDLQEIGIPLGPRKKILNYFSTRKNM [S59M], the abundance fitness was -0.068 ± 0.2. As to TLEEDLKKLQLSEFFDIFEKEKVDKEALALCTDRDLQEIGIPLGPRKKILNYFSTRKNR [S59R], the abundance fitness was -0.352 ± 0.11.
